# Patent US20240294650A1
# Assays:
# [1] = biological target: endogenous murine MerTK on bone marrow-derived macrophages (mouse) (UniProt Q60805); experiment: FACS, mouse BMDM, WT minus MerTK KO
# [2] = biological target: mouse MerTK overexpressed on CHO cells (mouse) (UniProt Q60805); experiment: FACS, CHO-muMerTK OE cells, PE-conjugated control
# mouse MerTK overexpressed on CHO cells (mouse), sequence (Q60805 19-994): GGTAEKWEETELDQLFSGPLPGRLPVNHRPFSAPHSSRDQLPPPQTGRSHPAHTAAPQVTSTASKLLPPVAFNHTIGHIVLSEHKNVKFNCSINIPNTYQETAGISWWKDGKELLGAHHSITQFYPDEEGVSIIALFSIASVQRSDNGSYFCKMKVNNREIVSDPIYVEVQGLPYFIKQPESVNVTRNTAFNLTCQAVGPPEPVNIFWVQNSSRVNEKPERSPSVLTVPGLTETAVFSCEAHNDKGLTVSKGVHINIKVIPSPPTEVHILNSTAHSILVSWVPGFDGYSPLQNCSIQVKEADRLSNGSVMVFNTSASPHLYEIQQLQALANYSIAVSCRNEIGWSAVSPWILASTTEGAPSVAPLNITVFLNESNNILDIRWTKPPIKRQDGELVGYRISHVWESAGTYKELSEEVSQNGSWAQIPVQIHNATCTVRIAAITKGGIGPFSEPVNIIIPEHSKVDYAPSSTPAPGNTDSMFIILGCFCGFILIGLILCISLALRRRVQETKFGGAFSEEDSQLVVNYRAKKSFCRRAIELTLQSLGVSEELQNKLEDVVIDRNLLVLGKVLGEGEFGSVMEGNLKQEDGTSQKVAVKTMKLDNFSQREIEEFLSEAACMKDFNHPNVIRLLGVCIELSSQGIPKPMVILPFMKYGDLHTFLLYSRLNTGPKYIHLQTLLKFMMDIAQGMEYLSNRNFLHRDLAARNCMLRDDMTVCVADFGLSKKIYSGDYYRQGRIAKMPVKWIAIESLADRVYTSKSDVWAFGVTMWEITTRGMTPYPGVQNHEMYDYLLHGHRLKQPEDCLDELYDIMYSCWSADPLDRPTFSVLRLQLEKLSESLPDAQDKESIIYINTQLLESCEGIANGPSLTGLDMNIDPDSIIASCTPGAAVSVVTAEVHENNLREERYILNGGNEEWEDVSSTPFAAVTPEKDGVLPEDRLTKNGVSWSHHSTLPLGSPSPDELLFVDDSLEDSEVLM
# endogenous murine MerTK on bone marrow-derived macrophages (mouse), sequence (Q60805 19-994): as above
substance,measurement,setting,value
rat anti-mouse MerTK monoclonal antibody DS5MMER,MFI,[1],2800 MFI
same,MFI,[2],3500 MFI
